These results are taken from the Human Domainome abundance scans (Beltran et al. 2025).

B1: Membrane-associated guanylate kinase, WW and PDZ domain-containing protein 2, residues 296 to 340; numbered along this chain, Q86UL8 (parent)
chain: EDNEEPDPLPDNWEMAYTEKGEVYFIDHNTKTTSWLDPRLAKKAK

± gives the uncertainty stated by the source.

The data set covers variants of B1. As to the kind of experiment: abundance fitness (aPCA) (normalised: wild type 0, dead -1); higher = more abundant; growth selection in yeast, the domain comes from the species named. The conditions noted are these: Homo sapiens.
For the variant W35P, the abundance fitness is -0.668 ± 0.089. The value for W35C was -0.527 ± 0.072. The value for W35V was -0.473 ± 0.063. The value for W35I was -0.492 ± 0.055; that for W35T was -0.451 ± 0.089. Regarding E22N, the abundance fitness is -0.314 ± 0.08. Then E22W, with -0.551 ± 0.051.

Turning to N3C, the abundance fitness is -0.031 ± 0.2. As to N3G, the abundance fitness was -0.081 ± 0.059. With N3F, the abundance fitness was -0.029 ± 0.41. K42L: the abundance fitness came out at 0.046 ± 0.22.

As to K42C, the abundance fitness was 0.097 ± 0.077. Regarding K42E, the abundance fitness worked out at 0.035 ± 0.062.

With K42P, the abundance fitness was found to be 0.128 ± 0.066. For the variant K42W, the abundance fitness was determined as 0.089 ± 0.094. K42G: the abundance fitness is 0.014 ± 0.046. Regarding K45E, the abundance fitness is -0.022 ± 0.098.

For the variant K45S, the abundance fitness turned out to be 0.076 ± 0.074.

As for K45R, the abundance fitness was 0.199 ± 0.23. The value for T32M was -0.071 ± 0.069; that for T32V was -0.111 ± 0.045; that for K43L was -0.113 ± 0.053. The value for K43V was 0.023 ± 0.094; that for K43R was 0.023 ± 0.063. As for D11G, the abundance fitness was -0.096 ± 0.043.

For the variant D11M, the abundance fitness is -0.015 ± 0.098. For D11K, the abundance fitness is -0.04 ± 0.06. The value for D11N was -0.011 ± 0.07.

As for D11Q, the abundance fitness turned out to be 0.091 ± 0.15.

On to D11W, for which the abundance fitness is -0.074 ± 0.044. Take D11H: the abundance fitness was -0.029 ± 0.062. As to A16W, the abundance fitness is -0.598 ± 0.07. The value for A16D was -0.398 ± 0.14; that for A16M was -0.254 ± 0.065; that for A16I was -0.529 ± 0.15.

As to A16E, the abundance fitness is -0.239 ± 0.062. Take A16V: the abundance fitness is -0.271 ± 0.053. The value for A16C was -0.274 ± 0.089; that for A16Y was -0.432 ± 0.093. Then A16K, with -0.119 ± 0.064. D27Y: the abundance fitness is -0.217 ± 0.38. Then D27M, with -1.03 ± 0.091; and D27I, with -1.58 ± 0.32. The value for D27N was -0.151 ± 0.082. On to D27A, for which the abundance fitness is -0.786 ± 0.12. On to K31G, for which the abundance fitness is -0.074 ± 0.038. Turning to K31R, the abundance fitness is 0.005 ± 0.039.

In the case of K31W, the abundance fitness is -0.2 ± 0.058.

As to K31Y, the abundance fitness was -0.235 ± 0.11.

In the case of K31I, the abundance fitness was -0.498 ± 0.079. Then P6A, with -0.001 ± 0.041; and P6W, with 0.043 ± 0.046. As for P6Y, the abundance fitness was -0.017 ± 0.054.

For the variant L40G, the abundance fitness turned out to be 0.076 ± 0.052. Then L40R, with -0.002 ± 0.053; and L40V, with 0.043 ± 0.045. The value for N12S was -0.199 ± 0.077; that for N12T was -0.224 ± 0.093; that for N12V was -0.703 ± 0.14. The value for T33A was -0.438 ± 0.048; that for T33C was 0.021 ± 0.063. For the variant T33G, the abundance fitness is -0.776 ± 0.043. With P8T, the abundance fitness was -0.035 ± 0.059.

Turning to P8D, the abundance fitness is -0.121 ± 0.093.

On to A41G, for which the abundance fitness was 0.138 ± 0.12. Then D2K, with 0.116 ± 0.066; and D2V, with 0.074 ± 0.05. D2P: the abundance fitness was -0.01 ± 0.11.

As for H28K, the abundance fitness was -0.269 ± 0.1. Then H28E, with -0.642 ± 0.088; and H28P, with -0.652 ± 0.065. With V23L, the abundance fitness is -0.062 ± 0.072. Then V23E, with -0.038 ± 0.046; and V23Q, with 0.14 ± 0.077. The value for V23G was -0.088 ± 0.066; that for Y24A was -0.664 ± 0.075.

For Y24R, the abundance fitness was -0.86 ± 0.071. The value for Y24C was -0.546 ± 0.28.

As to Y24Q, the abundance fitness was -0.809 ± 0.11. The value for Y24P was -1.07 ± 0.21; that for Y24W was -0.568 ± 0.049.

Turning to Y24V, the abundance fitness is -0.598 ± 0.074.

Turning to Y24D, the abundance fitness is -0.618 ± 0.084.

As to D7L, the abundance fitness is 0.04 ± 0.07. Then D7Q, with 0.054 ± 0.12; and A44L, with -0.111 ± 0.063. Regarding A44R, the abundance fitness was -0.076 ± 0.056.

With E14N, the abundance fitness was -0.241 ± 0.057. As to E14V, the abundance fitness was -0.264 ± 0.048. Consider E14W, for which the abundance fitness is -1.04 ± 0.14. Consider E14D, for which the abundance fitness is -0.097 ± 0.23. E14A: the abundance fitness is -0.47 ± 0.18.

E14T: the abundance fitness was -0.162 ± 0.084. As for T30F, the abundance fitness was -0.575 ± 0.13. In the case of T30E, the abundance fitness is -0.156 ± 0.067.

With T30R, the abundance fitness is -0.183 ± 0.038. Then P10D, with -0.341 ± 0.045; and P10R, with -0.532 ± 0.04.

As to P10N, the abundance fitness was -0.465 ± 0.052. The value for P10S was -0.47 ± 0.06; that for P10E was -0.376 ± 0.051.

Consider E19V, for which the abundance fitness was -0.079 ± 0.056. For E19L, the abundance fitness was -0.091 ± 0.053.

E19A: the abundance fitness is 0.054 ± 0.052. Then E19T, with 0.018 ± 0.046; and E1Y, with 0.094 ± 0.12. The value for E1V was 0.035 ± 0.046; that for E1M was -0.067 ± 0.07; that for E1I was -1.23 ± 0.15. Then F25S, with -0.777 ± 0.066. F25R: the abundance fitness was -0.715 ± 0.063. The value for Y17E was -0.42 ± 0.47; that for Y17A was -0.025 ± 0.056; that for Y17T was -0.039 ± 0.14. In the case of Y17F, the abundance fitness was -0.029 ± 0.045. Then Y17N, with -0.042 ± 0.15. Take Y17W: the abundance fitness was determined as 0.021 ± 0.048.

Turning to S34A, the abundance fitness was -0.43 ± 0.064. Then T18S, with -0.048 ± 0.077; and T18P, with -1.08 ± 0.13. Then T18K, with -0.476 ± 0.16. The value for T18F was -0.953 ± 0.11; that for T18G was -0.354 ± 0.048; that for T18Q was -0.849 ± 0.09.

Take T18W: the abundance fitness was -0.725 ± 0.11. As to E4Q, the abundance fitness is 0.306 ± 0.11. Then E4V, with 0.027 ± 0.044; and E4G, with 0.1 ± 0.07. In the case of D37S, the abundance fitness is -0.456 ± 0.041. Take D37M: the abundance fitness was -0.533 ± 0.071.

As for D37T, the abundance fitness was -0.675 ± 0.055. The value for D37Y was -0.697 ± 0.13. The value for D37R was -0.152 ± 0.039; that for D37W was -0.671 ± 0.045; that for D37E was -0.569 ± 0.073. For M15R, the abundance fitness is -0.106 ± 0.076. The value for G21P was -0.709 ± 0.16.

In the case of G21S, the abundance fitness was -0.208 ± 0.069. Then G21K, with -0.163 ± 0.084; and G21E, with -0.14 ± 0.054; and K20C, with -0.009 ± 0.092.

Consider K20W, for which the abundance fitness is -0.267 ± 0.06. In the case of K20D, the abundance fitness was -0.022 ± 0.063. Then K20M, with -0.004 ± 0.059; and K20R, with -0.032 ± 0.042.

For the variant K20S, the abundance fitness stood at 0.002 ± 0.075.

On to L36F, for which the abundance fitness was -0.184 ± 0.11.

Turning to L36N, the abundance fitness is -0.186 ± 0.09. Turning to L36S, the abundance fitness is -0.125 ± 0.045. Turning to L36W, the abundance fitness was -0.078 ± 0.087. Then N29D, with -0.109 ± 0.089; and N29S, with -0.011 ± 0.06. For N29P, the abundance fitness was -0.673 ± 0.079.

For I26D, the abundance fitness was -1.15 ± 0.16. The value for I26C was -0.258 ± 0.093. In the case of I26A, the abundance fitness was -0.521 ± 0.073. The value for I26M was 0.023 ± 0.16; that for I26L was -0.089 ± 0.068; that for I26Q was -0.259 ± 0.11. Then R39M, with -0.599 ± 0.056. Then R39Q, with -0.497 ± 0.054. For R39G, the abundance fitness was -0.46 ± 0.06. Consider R39C, for which the abundance fitness was -0.478 ± 0.08. Turning to R39Y, the abundance fitness is -0.769 ± 0.15. The value for R39S was -0.395 ± 0.044; that for R39L was -0.63 ± 0.046. As for R39P, the abundance fitness was -0.633 ± 0.069.
